Laboratory results reported in patent US20090292112A1 (published 2009).

Molecular target: T1, RG1 polypeptide (native RG1 protein, purified from transfected BHK cells) (human, UniProt Q9BUD6 27-331)
T1 construct: The Biacore assay used BHK-RG1; The Western blots used RG1 from COS, LNCaP and BHK cells and from lysates; also called nRG1; BHK-RG1
T1 chain: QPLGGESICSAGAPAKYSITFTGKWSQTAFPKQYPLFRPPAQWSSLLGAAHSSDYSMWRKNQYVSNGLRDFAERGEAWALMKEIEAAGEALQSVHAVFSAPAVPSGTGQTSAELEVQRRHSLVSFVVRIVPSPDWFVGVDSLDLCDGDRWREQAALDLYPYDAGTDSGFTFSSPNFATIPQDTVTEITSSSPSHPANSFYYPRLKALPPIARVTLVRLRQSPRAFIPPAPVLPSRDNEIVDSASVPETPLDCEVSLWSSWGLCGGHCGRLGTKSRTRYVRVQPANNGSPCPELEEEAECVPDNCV
Test: BIAcore SPR; mab captured on anti-human IgG Fc, soluble BHK-RG1 12.5-400 nM, 1:1 Langmuir fit
Method: Kinetic constants (KD, kₐ and kd) of mab binding to native RG1 protein were determined by BIAcore using a capture format in which soluble, native RG1 protein was bound to immobilized mab on a sensor chip. ImmunoPure rabbit anti-human IgGFc (Pierce, 31142) was covalently immobilized to the Sensor Chip CM5 (Biacore, BR-1000-12) using standard amine coupling methods. 100 ug/ml antibody diluted in 10 mm acetate, pH 4.0 was used at 5 ul/min. HBS-EP (Biacore, BR-1001-88) was used as mobile phase. Unreacted sites were blocked with ethanolamine. Mabs were diluted to 200 nM with HBS and 50 ul was injected per cycle at 10 ul/min. Serial dilutions of BHK-RG1 (12.5-400 nM) were bound to the immobilized mab. Dissociation kinetics were measured immediately after the antigen injection was completed at 20 ul/min for 8 minutes. The surface was regenerated following each cycle using 25 ul of 10 mm glycine, pH 1.8 and then washed with HBS.
Data were fit to a 1:1 Langmuir model using the software provided by the instrument manufacturer (BIAevaluation 3.0), and kinetic constants were calculated.

B1: human RG1 monoclonal antibody B (antibody, V domains shown)
VH: EVQLVQSGGGLVMPGGSLRLSCAGSGFTFSSYVMHWLRQAPGKGLEWVSVIGTGGVTHYADSVKGRFMISRDNAKNSLYLQMNSLRAEDTAMYYCARWGYYGSGSYENDAFDIWGQGTMVTVSS
VL: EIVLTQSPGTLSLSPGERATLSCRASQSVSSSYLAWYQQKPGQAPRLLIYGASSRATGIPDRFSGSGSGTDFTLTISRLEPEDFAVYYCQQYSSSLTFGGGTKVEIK
notes: Hybridomas were screened for human IgG,kappa, and the isotype of this clone is not explicitly stated; also called M ab B
For B1, the Kd was 8.4 nM, the koff was 0.00023 s⁻¹ and the kon was 29000 M⁻¹ s⁻¹.
